T1: purified papain (UniProt P00784 134-345)
T1 sequence (looked up): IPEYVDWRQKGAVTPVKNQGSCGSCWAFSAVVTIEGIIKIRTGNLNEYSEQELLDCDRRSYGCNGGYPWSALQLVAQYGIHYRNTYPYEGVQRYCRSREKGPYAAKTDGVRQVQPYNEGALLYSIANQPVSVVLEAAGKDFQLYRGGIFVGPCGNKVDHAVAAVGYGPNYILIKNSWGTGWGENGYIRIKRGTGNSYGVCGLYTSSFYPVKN

B1: sialostatin L2 (natural protein)
chain: MELALRGGYRERSNQDDPEYLELAHYATSTWSAQQPGKTHFDTVVEVLKVETQTVAGTNYRLTLKVAESTCELTSTYNKDTCQANANAAQRTCTTVIYRNLQGEKSISSFECAAA
B2: sialostatin L (natural protein)
chain: TGVFGGYSERANHQANPEFLNLAHYATSTWSAQQPGKTHFDTVAEVVKVETQVVAGTNYRLTLKVAESTCELTSTYNKDTCLPKADAAHRTCTTVVFENLQGDKSVSPFECEAA

Tests used:
Test in all cases: cell-based or functional assay
[1] = molecular target: recombinant human cathepsin L (human, UniProt P07711 18-333)
[2] = molecular target: recombinant human cathepsin S (human, UniProt P25774 17-331)
[3] = molecular target: purified bovine cathepsin C (bovine)
purified papain = molecular target: T1, purified papain

recombinant human cathepsin S, sequence (P25774 17-331): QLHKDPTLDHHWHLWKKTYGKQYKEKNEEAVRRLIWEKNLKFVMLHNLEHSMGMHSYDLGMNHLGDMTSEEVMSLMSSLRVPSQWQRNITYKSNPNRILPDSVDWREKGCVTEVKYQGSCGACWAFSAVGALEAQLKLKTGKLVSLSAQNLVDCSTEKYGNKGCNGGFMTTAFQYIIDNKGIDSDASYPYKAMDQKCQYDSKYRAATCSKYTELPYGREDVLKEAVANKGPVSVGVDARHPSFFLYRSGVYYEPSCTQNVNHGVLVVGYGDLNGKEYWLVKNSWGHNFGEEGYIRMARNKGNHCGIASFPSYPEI
recombinant human cathepsin L, sequence (P07711 18-333): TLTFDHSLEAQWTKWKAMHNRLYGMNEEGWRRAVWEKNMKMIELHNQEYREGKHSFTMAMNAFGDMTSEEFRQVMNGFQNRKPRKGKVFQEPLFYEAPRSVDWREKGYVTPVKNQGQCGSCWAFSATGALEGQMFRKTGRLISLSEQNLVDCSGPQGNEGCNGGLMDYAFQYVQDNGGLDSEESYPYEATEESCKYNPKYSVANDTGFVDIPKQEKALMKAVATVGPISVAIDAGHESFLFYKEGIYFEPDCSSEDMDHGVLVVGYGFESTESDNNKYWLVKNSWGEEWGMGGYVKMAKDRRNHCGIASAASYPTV
purified bovine cathepsin C (bovine), sequence (Q3ZCJ8 25-463): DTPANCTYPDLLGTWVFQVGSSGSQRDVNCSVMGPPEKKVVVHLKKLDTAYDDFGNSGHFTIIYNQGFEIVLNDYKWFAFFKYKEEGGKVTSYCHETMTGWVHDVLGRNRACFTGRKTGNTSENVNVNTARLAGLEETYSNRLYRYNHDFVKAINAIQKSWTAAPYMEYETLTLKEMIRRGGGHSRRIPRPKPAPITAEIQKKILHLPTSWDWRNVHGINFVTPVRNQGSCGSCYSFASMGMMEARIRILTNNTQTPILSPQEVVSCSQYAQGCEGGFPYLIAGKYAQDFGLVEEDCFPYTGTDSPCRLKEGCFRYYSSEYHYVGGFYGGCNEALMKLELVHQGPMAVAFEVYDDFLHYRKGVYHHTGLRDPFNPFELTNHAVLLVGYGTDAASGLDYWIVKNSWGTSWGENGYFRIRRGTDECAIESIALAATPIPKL

| Binder | IC50 of inhibition of enzyme activity (fluorogenic substrate) [1] | IC50 of inhibition of enzyme activity (fluorogenic substrate) [2] | IC50 of inhibition of enzyme activity (fluorogenic substrate) [3] | IC50 of inhibition of enzyme activity (fluorogenic substrate) (purified papain) |
| --- | --- | --- | --- | --- |
| B1 | 1.1 nM | 114 nM | 4720 nM | 0.4 nM |
| B2 | 1.6 nM | 0.2 nM | 160 nM | 0.5 nM |

Reference: publication PMC2909360 (Molecular microbiology, 2010)
